# Measured values from article PMC7026628.
# B1: T31/P8F (structured_RNA)
# RNA 1: GGGAGAUGAAAGUCUCCAGGUCUCUCGGAAA
# RNA 2: UGUUCCGA
# B2: T31/P12 + ddCMP (structured_RNA)
# RNA 1: GGGAGAUGAAAGUCUCCAGGUCUCUCGGAAA
# RNA 2: UGUUCCGAGAGAC
# modifications: 3'-terminal 2',3'-dideoxy-C on product strand
# B3: T31/P12 (T31/P8 after GAGA incorporation) (structured_RNA)
# RNA 1: GGGAGAUGAAAGUCUCCAGGUCUCUCGGAAA
# RNA 2: UGUUCCGAGAGA
# Assays:
# EV71-C 3Dpol WT [1] = target: T1, EV71-C 3Dpol WT (Enterovirus 71 strain …, UniProt M4QLY4 1732-2193); experiment: fluorescence polarization; 5 mM Mg2+; FP: 50 mM potassium glutamate pH 7.5, 50 mM arginine, 5 mM DTT, 5 mM MgCl2, 30 mM NaCl, 5% glycerol, 25 nM RNA, room temperature, at least 60 min. EC assembly:
# EV71-C 3Dpol WT [2] = target: T1, EV71-C 3Dpol WT; experiment: crystal structure; ddCTP-soaked elongation complex; FP: 50 mM potassium glutamate pH 7.5, 50 mM arginine, 5 mM DTT, 5 mM MgCl2, 30 mM NaCl, 5% glycerol, 25 nM RNA, room temperature, at least 60 min. EC assembly:
# EV71-C 3Dpol WT [3] = target: T1, EV71-C 3Dpol WT; experiment: crystal structure (1.8 A); five Mg2+; elongation complex; FP: 50 mM potassium glutamate pH 7.5, 50 mM arginine, 5 mM DTT, 5 mM MgCl2, 30 mM NaCl, 5% glycerol, 25 nM RNA, room temperature, at least 60 min. EC assembly:
binder,measurement,setting,value
B1,Kd,EV71-C 3Dpol WT [1],180 nM
B2,binding result,EV71-C 3Dpol WT [2],binds
B3,binding result,EV71-C 3Dpol WT [3],binds
